Test results reported in patent publication US20090148436A1 (Pfizer, published 2009).
Blank lines part the entries; values can stand above or below the binder they belong to.

How the values were obtained:
[1] = target: T1, mature human GDF8 (growth and differentiation factor-8, myostatin) (human, UniProt O14793 267-375); assay: soluble ActRIIB as competitor: inhibition of the binding of biotinylated GDF8 (20 ng/ml) to plate-coated ActRIIB-Fc; axis OD 450 nm
T1 construct: Recombinant mature GDF8 dimer purified from CHO cell conditioned media; It was biotinylated (Sulfo-NHS-Biotin) in the direct ELISA, the BIAcore work and the ActRIIB plate assay, and unlabeled in the sandwich ELISAs; In the peptide array Cys was replaced by Ser; also called mature GDF-8; GDF-8 dimer

[2] = target: T1, mature human GDF8 (growth and …); assay: inhibition of the binding of biotinylated GDF8 (20 ng/ml), preincubated with the titrated protein, to plate-coated ActRIIB-Fc; axis OD 450 nm
mature BMP11 = target: T2, mature BMP11 (human, UniProt O95390 299-407); assay: ELISA: antibody titrated on biotinylated BMP11 held on a streptavidin plate (title SA/BIO BMP11 ELISA), OD 450 nm
T2 construct: mature; it is not certain that 'human' covers BMP11; It was biotinylated in the ELISA; also called biotinylated BMP11

[3] = target: T1, mature human GDF8 (growth and …); assay: BIAcore 2000, RK22 over biotinylated GDF-8 on Sensor Chip SA; Langmuir model (global analysis), row Average of three independent experiments
[4] = target: T1, mature human GDF8 (growth and …); assay: sandwich ELISA: RK22 coated, GDF-8 titrated, biotinylated RK35 as detector, in THST; the concentration is that of GDF-8
[5] = target: T1, mature human GDF8 (growth and …); assay: BIAcore 2000, RK22 (lot PK1901, activity 82.54 %) over biotinylated GDF-8 on Sensor Chip SA; 71 RU (2.6.03), Bivalent model (global analysis), ka1/kd1, Rmax 53.00, Chi2 0.84
[6] = target: T1, mature human GDF8 (growth and …); assay: BIAcore 2000, RK22 (lot PK1901, activity 82.54 %) over biotinylated GDF-8 on Sensor Chip SA; 42.4 RU (6.14.03), Langmuir model (global analysis), Rmax 39.4, Chi2 3.67
[7] = target: T1, mature human GDF8 (growth and …); assay: BIAcore 2000, RK22 (lot PK1901, activity 82.54 %) over biotinylated GDF-8 on Sensor Chip SA; 42.4 RU (6.14.03), Bivalent model (global analysis), ka1/kd1, Rmax 49.2, Chi2 0.299
[8] = target: T1, mature human GDF8 (growth and …); assay: BIAcore 2000, RK22 (lot PK1901, activity 82.54 %) over biotinylated GDF-8 on Sensor Chip SA; 71 RU (2.6.03), Langmuir model (global analysis), Rmax 44.00, Chi2 7.47
[9] = target: T1, mature human GDF8 (growth and …); assay: SPR (BIAcore 2000), biotinylated GDF-8 on streptavidin chip, antibody 2.3-300 nM in solution
[10] = target: T1, mature human GDF8 (growth and …); assay: ELISA: antibody titrated on biotinylated GDF8 held on a streptavidin plate (title SA/BIO GDF8 BINDING ELISA), OD 450 nm
[11] = target: T1, mature human GDF8 (growth and …); assay: BIAcore 2000, RK22 (lot PK1901, activity 82.54 %) over biotinylated GDF-8 on Sensor Chip SA; 45 RU (4.30.03), Langmuir model (global analysis), Rmax 84.00, Chi2 2.12
[12] = target: T1, mature human GDF8 (growth and …); assay: BIAcore 2000, RK22 (lot PK1901, activity 82.54 %) over biotinylated GDF-8 on Sensor Chip SA; 45 RU (4.30.03), Bivalent model (global analysis), ka1/kd1, Rmax 84.00, Chi2 1.29
[13] = target: T1, mature human GDF8 (growth and …); assay: BIAcore 2000, RK22 over biotinylated GDF-8 on Sensor Chip SA; Bivalent model (global analysis), ka1/kd1, row Average of three independent experiments
[14] = target: T1, mature human GDF8 (growth and …); assay: cell-based or functional assay

T2 sequence (O95390 299-407): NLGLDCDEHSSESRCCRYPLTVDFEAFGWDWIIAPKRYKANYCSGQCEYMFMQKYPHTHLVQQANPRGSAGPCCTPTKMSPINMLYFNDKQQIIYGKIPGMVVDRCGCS

IC50 (read off the curve) [1]: ~0.3 nM
B1: Recombinant ActRIIB-Fc chimera (R&D Systems, Cat. No. 339-RB/CF) (Fc fusion)
chain: SGRGEAETRECIYYNANWELERTNQSGLERCEGEQDKRLHCYASWRNSSGTIELVKKGCWLDDFNCYDRQECVATEENPQVYFCCCEGNFCNERFTHLPEAGGPEVTYEPPPTAPT
notes: Bought construct; also called ActRIIB fusion protein; ActIIRB; Fc part of the bought chimera not given

IC50 (read off the curve) [2]: ~0.3 nM
B2: MYO-029 human IgG1 anti-GDF-8 antibody (antibody, V domains shown)
VH: QVQLVQSGAEVKKPGASVKVSCKASGYTFTSYYMHWVRQAPGQGLEWMGIINPSGGSTSYAQKFQGRVTMTRDTSTSTVYMELSSLRSEDTAVYYCARDENWGFDPWGQGTLVTVSS
VL: SYELTQPPSVSVSPGQTATITCSGHALGDKFVSWYQQGSGQSPVLVIYDDTQRPSGIPGRFSGSNSGNTATLTISGTQAMDEADYFCQAWDSSFVFGGGTKVTVL

EC50 (mature BMP11): 61.2 µg/mL | Ka [3]: 2.18e+08 M⁻¹ | Kd [3]: 6.89 nM | koff [3]: 0.000562 s⁻¹ | kon [3]: 116000 M⁻¹ s⁻¹ | EC50 (read off the curve) [4]: ~0.0003 µg/mL | Ka [5]: 1.07e+08 M⁻¹ | Kd [5]: 9.33 nM | koff [5]: 0.00078 s⁻¹ | kon [5]: 83600 M⁻¹ s⁻¹ | Ka [6]: 3.24e+08 M⁻¹ | Kd [6]: 3.09 nM | koff [6]: 0.000482 s⁻¹ | kon [6]: 156000 M⁻¹ s⁻¹ | Ka [7]: 1.09e+08 M⁻¹ | Kd [7]: 9.14 nM | koff [7]: 0.000714 s⁻¹ | kon [7]: 78100 M⁻¹ s⁻¹ | Ka [8]: 2.58e+08 M⁻¹ | Kd [8]: 3.88 nM | koff [8]: 0.000572 s⁻¹ | kon [8]: 147000 M⁻¹ s⁻¹ | Kd [9]: 7 nM | EC50 [10]: 0.193 µg/mL | Ka [11]: 7.28e+07 M⁻¹ | Kd [11]: 13.7 nM | koff [11]: 0.000633 s⁻¹ | kon [11]: 46100 M⁻¹ s⁻¹ | Ka [12]: 3.67e+07 M⁻¹ | Kd [12]: 27.3 nM | koff [12]: 0.00063 s⁻¹ | kon [12]: 23100 M⁻¹ s⁻¹ | Ka [13]: 8.44e+07 M⁻¹ | Kd [13]: 15.2 nM | koff [13]: 0.000708 s⁻¹ | kon [13]: 61600 M⁻¹ s⁻¹ | IC50, pGL3(CAGA)12 luciferase reporter in A204 cells treated with 10 ng/ml GDF8 [14]: 0.4 nM
B3: RK22 murine monoclonal anti-GDF8 antibody (antibody, V domains shown)
VH: QVQLQQSGAELARPGASVKLSCKASGYTFTSYWMQWVKQRPGQGLEWIGAIYPGDGDTRYTQKFKGKATLTADKSSSTAYMQLSSLASEDSAVYYCARMGGYDRYYFDYWGQGTTLTVSS
VL: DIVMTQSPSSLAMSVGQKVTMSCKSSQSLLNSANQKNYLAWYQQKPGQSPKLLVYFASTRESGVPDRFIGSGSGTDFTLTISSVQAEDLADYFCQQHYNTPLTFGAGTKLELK
notes: Mouse monoclonal from a hybridoma (GDF8 knockout mice); It was biotinylated when used as the ELISA detector; also called RK22 antibody; biotinylated RK22
